Measured values from publication PMC4929722.

Key:
[1] = target: BTas-Y (bovine foamy virus transactivator Tas of clone pBS-BFV-Y, D108) (bovine foamy virus (BFV3026)); experiment: cross-linking; lysates of transfected HEK293T cells (20 mM Tris-Cl pH 7.5, 150 mM EDTA, 0.5 mM Na3VO4, 1 % NP-40) mixed with 0.01 % glutaraldehyde in 20 mM triethanolamine pH 8.2, 10 mM NaCl, 30 min at room temperature; 12 % SDS-PAGE and immunoblot with anti-BTas
[2] = target: BTas-B (bovine foamy virus transactivator Tas of clone pBS-BFV-B, N108) (bovine foamy virus (BFV3026)); experiment: as above

| Substance | stoichiometry N [1] | stoichiometry N [2] |
| --- | --- | --- |
| BTas-Y (bovine foamy virus transactivator Tas of clone pBS-BFV-Y, D108) (natural protein) | 2 | – |
| BTas-B (bovine foamy virus transactivator Tas of clone pBS-BFV-B, N108) (natural protein) | – | 2 |
